Measurements as given in patent publication US20220363757A1 (SYMPHOGEN A S, published 2022).
Numbering of substitutions follows the chain as printed. In names and notes the source's numbering stands.

Experiments:
[1] = target: T1, R-PE-labeled recombinant human LAG-3-Fc chimera protein (R&D Systems) (human, UniProt P18627 23-450, conjugated to R-phycoerythrin); assay: flow cytometric competition, LAG-3-Fc-PE binding to MHCII on A375 cells, antibody 20 ug/mL
T1 construct: bought; also called LAG-3-Fc-PE; soluble LAG-3; not shown: Fc of the bought chimera, not described
T1 sequence: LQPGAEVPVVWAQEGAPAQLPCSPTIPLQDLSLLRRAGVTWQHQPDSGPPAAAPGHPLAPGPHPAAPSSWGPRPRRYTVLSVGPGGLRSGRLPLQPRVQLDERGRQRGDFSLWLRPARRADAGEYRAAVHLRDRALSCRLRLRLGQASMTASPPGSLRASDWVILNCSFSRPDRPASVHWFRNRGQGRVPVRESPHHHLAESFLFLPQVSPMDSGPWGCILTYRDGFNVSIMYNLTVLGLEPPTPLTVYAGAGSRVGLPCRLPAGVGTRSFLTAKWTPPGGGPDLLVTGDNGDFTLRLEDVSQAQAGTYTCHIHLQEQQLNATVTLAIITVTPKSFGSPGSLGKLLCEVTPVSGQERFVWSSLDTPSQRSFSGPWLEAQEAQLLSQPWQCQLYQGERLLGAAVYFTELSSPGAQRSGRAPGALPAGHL

[2] = target: T2, human LAG-3 on transiently transfected CHO-S cells (human, UniProt P18627 23-525); assay: flow cytometry on transfected CHO-S cells
T2 construct: also called huLAG-3
T2 sequence: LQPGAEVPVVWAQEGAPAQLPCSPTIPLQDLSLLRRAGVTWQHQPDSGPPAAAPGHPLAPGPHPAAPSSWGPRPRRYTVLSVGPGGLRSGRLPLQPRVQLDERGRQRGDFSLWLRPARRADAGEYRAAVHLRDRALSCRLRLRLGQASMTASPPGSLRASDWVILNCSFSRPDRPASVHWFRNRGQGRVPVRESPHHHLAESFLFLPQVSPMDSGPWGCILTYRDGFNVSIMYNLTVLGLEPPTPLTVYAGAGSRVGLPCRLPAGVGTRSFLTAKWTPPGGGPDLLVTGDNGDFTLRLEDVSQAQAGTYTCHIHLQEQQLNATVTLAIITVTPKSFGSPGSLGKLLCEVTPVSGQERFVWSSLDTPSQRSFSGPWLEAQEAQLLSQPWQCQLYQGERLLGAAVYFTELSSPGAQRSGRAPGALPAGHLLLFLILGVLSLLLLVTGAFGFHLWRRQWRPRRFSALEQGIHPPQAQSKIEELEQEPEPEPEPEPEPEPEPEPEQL

B1: antibody 15011 (antibody, human IgG1, lambda, L234A L235A, V domains shown)
VH: EVQLLESGGGLVQPGGSLRLSCAASGFDFRSYAMMWVRQAPGKGLEWVGGINGEVGGSNTYYAPAVKGRATISRDNSKNTLYLQMNSLRAEDTAVYYCVKGAGACGICNDDIDAWGQGTLVTVSS
VL: SYELTQDPAVSVALGQTVRITCSGAGSYAGSYYYGWHQQKPGQAPVTVIYDNDKRPSNIPDRFSGSSSGNTASLTITGAQAEDEADYYCGSTNDNDDGGLFGSGTKVTVLG
notes: humanized chicken-derived antibody, human IgG1 constant region, lambda (IGLC1*01)
LAG-3/MHCII Blocking (%) [1]: 92%

B2: antibody 15646 (antibody, human IgG1, kappa, L234A L235A, V domains shown)
VH: QVQLQQWGAGLLKPSETLSLTCAVYGGSFSGYYWSWIRQPPGKGLEWIGEINHRGSTNYNPSLKSRVTISVDTSKNQFSLKLSSVTAADTAVYYCTRGEEWESLFFDYWGQGTLVTVSS
VL: EIVLTQSPATLSLSPGERATLSCRASQSISSYLAWYQQKPGQAPRLLIYGASNRATGIPARFSGSGSGTDFTLTISSLEPEDFAVYYCQQRSNWPLTFGGGTRVEIKR
notes: OmniRat-derived human IgG1 with L234A/L235A (LALA), kappa; also called 15646 (15)
EC50 [2]: 0.1 nM
LAG-3/MHCII Blocking (%) [1]: 49%

B3: antibody 15532 (antibody, human IgG1, kappa, L234A L235A, V domains shown)
VH: QVQLQQWGAGLLRPSETLSLTCAVYGESFSGYYWNWIRQPPGKGLEWIGEINHSGSTNYNPSLKSRVTISVDTSKTQFSLKLSSVTAADTAVYYCARGWDLLDWNDYWNEYWGQGTLVTVSS
VL: B2 VL with I29V, G50D, R103K
notes: OmniRat-derived human IgG1 LALA, kappa
EC50 [2]: 0.07 nM
LAG-3/MHCII Blocking (%) [1]: 89%

B4: antibody 15431 (antibody, human IgG1, kappa, L234A L235A, V domains shown)
VH: QVQLQQSGPGLVKPSQTLSLTCAISGDSVSSNSAAWNWIRQSPSRGLEWLGRTYYRSKWYNDYAVSVKSRITINPDTSKNQFSLQLNSVTPEDTAVYYCARDDDWNDFDYWGQGTLVTVSS
VL: B2 VL with I29V, G50D, R103K
notes: OmniRat-derived human IgG1 LALA, kappa; also called 15431 (38); 15431 (83)
EC50 [2]: 0.04 nM
LAG-3/MHCII Blocking (%) [1]: 92%

B5: antibody 15723 (antibody, human IgG1, kappa, L234A L235A, V domains shown)
VH: B2 VH with S35N, R54S, T96A, E100D, E102G, S103E, L104S
VL: B2 VL with I29V, G50A, R103K
notes: OmniRat-derived human IgG1 LALA, kappa; also called 15723 (39)
EC50 [2]: 0.09 nM
LAG-3/MHCII Blocking (%) [1]: 55%

B6: antibody 15595 (antibody, V domains shown)
VH: QVQLVQSGAEVKKPGASVKVSCKVSGYSLTEISMHWVRQAPGKGLEWMGGFDPEDGETIYAQRFQGRVIMTEDTSTDTAYMELSSLRSEDTAVYYCATGGWGPNWFDPWGQGTLVTVSS
VL: DIQMTQSPSSVSASVGDRVTITCRASQGISSWLAWYQQKPGKAPKLLIYAASSLQSGVPSRFSGSGSGTDFTLTISSLQPEDFATYYCQQANSFPFTFGPGTKVDIKR
notes: OmniRat-derived human IgG1 LALA, kappa; also called 15595 (52)
EC50 [2]: 0.05 nM
LAG-3/MHCII Blocking (%) [1]: 94%

B7: antibody 15572 (antibody, human IgG1, kappa, L234A L235A, V domains shown)
VH: QLQLQESGPGLVKPSETLSLTCTVSGDSISSSSYYWGWIRQPPGKGLEWIGSIFYSGNTYYNPSLKSRVTISVDTSKNQFSLKLSSVTAADTAVYYCAREDDFLTDYYGAFDIWGQGTMVTVSS
VL: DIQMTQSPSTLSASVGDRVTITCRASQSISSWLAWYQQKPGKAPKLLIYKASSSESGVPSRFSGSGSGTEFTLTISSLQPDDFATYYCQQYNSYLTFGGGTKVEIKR
notes: OmniRat-derived human IgG1 LALA, kappa; also called 15572 (91)
EC50 [2]: 0.07 nM
LAG-3/MHCII Blocking (%) [1]: 37%
